Source: the supplement of paper PMC7877785
± gives the uncertainty stated by the source.

Assay: self-splicing fitness, log relative to wild type (ln ratio); higher = more splicing; Tetrahymena group I intron in knt gene, E. coli kanamycin selection, DiMSum; sequences stand for … in CUCUCU…GGAGGGAAAAGUUAUCAGGCAUGCACCUGGUAGCUAGUCUUUAAACCAAUAGAUUGCAUCGGUUUAAAAGGCAAGACCGUCAAAUUGCGGGAAAGGGGUCAACAGCCGUUCAGUACCAAGUCUCAGGGGAAACUUUGAGAUGGCCUUGCAAAGGGUAUGGUAAUAAGCUGACGGACAUGGUCCUAACCACGCAGCCAAGUCCUAAGUCAACAGAUCUUCUGUUGAUAUGGAUGCAGUUCACAGACUAAAUGUCGGUCGGGGAAGAUGUAUUCUUCUCAUAAGAUAUAGUCGGACCUCUCCUUAAUGGGAGCUAGCGGAUGAAGUGAUGCAACACUGGAGCCGCUGGGAACUAAUUUGUAUGCGAAAGUAUAUUGAUUAGUUUUGGAGUACUCGUGGUCG
Summary of the method: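 Six replicate transformations of E. coli BL21(DE3) with a pET-22b(+) library were grown overnight at 37°C or 30°C. The library randomised all eight P1ex-region intron nucleotides, the intron lying in the knt kanamycin-resistance gene, and plates were LB agar with or without 25 μg/mL kanamycin plus 100 μg/mL carbenicillin, 50 μM IPTG and 0.2% rhamnose. Pooled colonies were amplicon-sequenced on an Illumina HiSeq 2500, and fitness is the DiMSum error-weighted combination of wild-type-normalised replicate fold changes, kanamycin versus none.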

UAGCAGCAAUAUUACGGCCG
self-splicing fitness (ln) (30 °C): -0.163 ± 0.071
self-splicing fitness (ln) (37 °C): 0.0112 ± 0.085

CCAGAGCAAUAUUACGCGCG
self-splicing fitness (ln) (30 °C): -1.19 ± 0.1
self-splicing fitness (ln) (37 °C): -0.59 ± 0.14

CACGAGCAAUAUUACGUGUG
self-splicing fitness (ln) (30 °C): -3.48 ± 0.13
self-splicing fitness (ln) (37 °C): -3.21 ± 0.17

UUGAAGCAAUAUUACGGGGA
self-splicing fitness (ln) (30 °C): -0.685 ± 0.08
self-splicing fitness (ln) (37 °C): 0.372 ± 0.12

CCUUAGCAAUAUUACGUGGG
self-splicing fitness (ln) (30 °C): -2.78 ± 0.16
self-splicing fitness (ln) (37 °C): -2.35 ± 0.16

CUGUAGCAAUAUUACGGUUC
self-splicing fitness (ln) (30 °C): -3.87 ± 0.14
self-splicing fitness (ln) (37 °C): -3.71 ± 0.22

AAUUAGCAAUAUUACGACAU
self-splicing fitness (ln) (30 °C): -0.0913 ± 0.013
self-splicing fitness (ln) (37 °C): -0.0165 ± 0.033

GAGAAGCAAUAUUACGCGUG
self-splicing fitness (ln) (30 °C): -0.423 ± 0.062
self-splicing fitness (ln) (37 °C): -0.803 ± 0.09

CAGAAGCAAUAUUACGUAGU
self-splicing fitness (ln) (30 °C): -4.18 ± 0.24
self-splicing fitness (ln) (37 °C): -1.97 ± 0.17

GUCCAGCAAUAUUACGUUGA
self-splicing fitness (ln) (30 °C): -0.801 ± 0.057
self-splicing fitness (ln) (37 °C): -0.239 ± 0.071

UGAAAGCAAUAUUACGAACU
self-splicing fitness (ln) (30 °C): -0.526 ± 0.088
self-splicing fitness (ln) (37 °C): 0.612 ± 0.1

AUGAAGCAAUAUUACGGAUC
self-splicing fitness (ln) (30 °C): -0.696 ± 0.09
self-splicing fitness (ln) (37 °C): -0.0788 ± 0.099

UCUCAGCAAUAUUACGGGUA
self-splicing fitness (ln) (30 °C): -0.605 ± 0.11
self-splicing fitness (ln) (37 °C): -0.0376 ± 0.11

ACUAAGCAAUAUUACGUUGG
self-splicing fitness (ln) (30 °C): -2.95 ± 0.12
self-splicing fitness (ln) (37 °C): -1.73 ± 0.11

GUCCAGCAAUAUUACGUCGA
self-splicing fitness (ln) (30 °C): -0.796 ± 0.2
self-splicing fitness (ln) (37 °C): -0.589 ± 0.19

CGGUAGCAAUAUUACGCUCU
self-splicing fitness (ln) (30 °C): -2.71 ± 0.24
self-splicing fitness (ln) (37 °C): -2.43 ± 0.33

UCCAAGCAAUAUUACGUGUA
self-splicing fitness (ln) (30 °C): -0.565 ± 0.043
self-splicing fitness (ln) (37 °C): 0.504 ± 0.057

UAGGAGCAAUAUUACGCGUU
self-splicing fitness (ln) (30 °C): -4.38 ± 0.24
self-splicing fitness (ln) (37 °C): -1.37 ± 0.14

UAAGAGCAAUAUUACGGAAU
self-splicing fitness (ln) (30 °C): -3.52 ± 0.41
self-splicing fitness (ln) (37 °C): -2.14 ± 0.41

CAGUAGCAAUAUUACGGAAU
self-splicing fitness (ln) (30 °C): -3.7 ± 0.27
self-splicing fitness (ln) (37 °C): -2.55 ± 0.18

AACUAGCAAUAUUACGCGAC
self-splicing fitness (ln) (30 °C): -2.49 ± 0.27

GUACAGCAAUAUUACGCGAC
self-splicing fitness (ln) (30 °C): -4.09 ± 0.28
self-splicing fitness (ln) (37 °C): -1.87 ± 0.16

GUUAAGCAAUAUUACGUCCA
self-splicing fitness (ln) (30 °C): -1.21 ± 0.088
self-splicing fitness (ln) (37 °C): 0.057 ± 0.097

AACUAGCAAUAUUACGACUG
self-splicing fitness (ln) (30 °C): -0.606 ± 0.1
self-splicing fitness (ln) (37 °C): -0.989 ± 0.13

GAGGAGCAAUAUUACGGGGA
self-splicing fitness (ln) (30 °C): -1.86 ± 0.23
self-splicing fitness (ln) (37 °C): -3.17 ± 0.4

AGUAAGCAAUAUUACGUACG
self-splicing fitness (ln) (30 °C): -1.51 ± 0.11
self-splicing fitness (ln) (37 °C): 0.135 ± 0.14

CGCCAGCAAUAUUACGAGCA
self-splicing fitness (ln) (30 °C): -0.418 ± 0.064
self-splicing fitness (ln) (37 °C): 0.817 ± 0.092

CAUUAGCAAUAUUACGGCUU
self-splicing fitness (ln) (30 °C): -4.46 ± 0.39
self-splicing fitness (ln) (37 °C): -1.98 ± 0.33

CAUCAGCAAUAUUACGUAGA
self-splicing fitness (ln) (30 °C): -1.06 ± 0.065
self-splicing fitness (ln) (37 °C): -0.309 ± 0.088

AAUCAGCAAUAUUACGUCAU
self-splicing fitness (ln) (30 °C): 0.166 ± 0.064
self-splicing fitness (ln) (37 °C): 0.337 ± 0.077

CACAAGCAAUAUUACGUCGU
self-splicing fitness (ln) (30 °C): -3.56 ± 0.13
self-splicing fitness (ln) (37 °C): -1.96 ± 0.11

ACAGAGCAAUAUUACGGAGA
self-splicing fitness (ln) (30 °C): -3.21 ± 0.26
self-splicing fitness (ln) (37 °C): -2.6 ± 0.29

AGUCAGCAAUAUUACGGUUA
self-splicing fitness (ln) (30 °C): -1.15 ± 0.087
self-splicing fitness (ln) (37 °C): -0.533 ± 0.073

GGAGAGCAAUAUUACGCGAC
self-splicing fitness (ln) (30 °C): -2.83 ± 0.21
self-splicing fitness (ln) (37 °C): -2.22 ± 0.34

UAACAGCAAUAUUACGUGCA
self-splicing fitness (ln) (30 °C): -0.792 ± 0.063
self-splicing fitness (ln) (37 °C): -0.445 ± 0.098

CUGUAGCAAUAUUACGGGUG
self-splicing fitness (ln) (30 °C): -0.818 ± 0.084
self-splicing fitness (ln) (37 °C): -1.15 ± 0.099

CAAAAGCAAUAUUACGUGCU
self-splicing fitness (ln) (30 °C): -4.33 ± 0.2
self-splicing fitness (ln) (37 °C): -2.27 ± 0.15

GGACAGCAAUAUUACGUCGA
self-splicing fitness (ln) (30 °C): 0.00434 ± 0.082
self-splicing fitness (ln) (37 °C): 0.755 ± 0.12

CUCGAGCAAUAUUACGGCUA
self-splicing fitness (ln) (37 °C): -2.32 ± 0.39

GAGCAGCAAUAUUACGUUUA
self-splicing fitness (ln) (30 °C): -1.17 ± 0.092
self-splicing fitness (ln) (37 °C): -1 ± 0.097

UCAAAGCAAUAUUACGGGAU
self-splicing fitness (ln) (30 °C): -2.04 ± 0.16
self-splicing fitness (ln) (37 °C): -2.46 ± 0.25

AAAAAGCAAUAUUACGAGAA
self-splicing fitness (ln) (30 °C): -2.33 ± 0.33
self-splicing fitness (ln) (37 °C): -0.686 ± 0.27

GAUAAGCAAUAUUACGGAGA
self-splicing fitness (ln) (30 °C): -3.48 ± 0.36
self-splicing fitness (ln) (37 °C): -2.78 ± 0.24

CCAAAGCAAUAUUACGUAUC
self-splicing fitness (ln) (30 °C): -1.28 ± 0.11
self-splicing fitness (ln) (37 °C): -2.76 ± 0.24

CCCGAGCAAUAUUACGCGUU
self-splicing fitness (ln) (30 °C): -4.43 ± 0.3
self-splicing fitness (ln) (37 °C): -2.22 ± 0.28

UGAGAGCAAUAUUACGAGGA
self-splicing fitness (ln) (30 °C): -3.49 ± 0.34
self-splicing fitness (ln) (37 °C): -2.83 ± 0.4

ACACAGCAAUAUUACGCGUA
self-splicing fitness (ln) (30 °C): -1.89 ± 0.078
self-splicing fitness (ln) (37 °C): -1.2 ± 0.074

AGGGAGCAAUAUUACGGCAU
self-splicing fitness (ln) (30 °C): -3.2 ± 0.2
self-splicing fitness (ln) (37 °C): -2.46 ± 0.23
